In patent US20190161555A1 (ALLIGATOR BIOSCIENCE, published 2019):

Legend:
cynomolgus 5T4 [1] = target: T1, cynomolgus 5T4 (Macaca mulatta (cynomolgus)); assay: flow cytometry, CHO cells with cynomolgus 5T4 against CHO cells with human 5T4
T1 construct: whole, on cells; stably transfected CHO cells; also called cyno5T4; cy5T4
Description: (§1) The potency of 5T4 antibodies in binding to cynomolgus 5T4 was determined by flow cytometry. CHO cells were stably transfected with […] (cynomolgus) 5T4. […] Samples were analysed either on a FACSCalibur or a FACSverse (BD Biosciences, Heidelberg, Germany) and mean fluorescence intensity (MFI) determined. […] To compare the EC50 values between human and cynomolgus 5T4, the cy5T4/hu5T4 ratio was calculated from the experiment with the full dose-response.

[2] = target: T2, human/mouse 5T4 chimera E7; assay: flow cytometry, cells with 5T4 chimera; % positive cells over that of the best clone
T2 construct: on stably transfected CHO cells
Description: (§2) Epitope mapping was performed by investigation of loss of binding by the antibodies using a panel of human/mouse chimeric 5T4 constructs by flow cytometry. […] Two strategies were used for the epitope mapping as illustrated in FIG. 5. In one approach, seven human/mouse 5T4 chimeras were constructed based on dividing 5T4 into seven different domains (FIG. 5). By replacing each domain with the corresponding mouse sequence seven human/mouse 7 5T4 human/mouse chimeras were generated. The chimeras were generated using the human protein 5T4 sequence NP_006661.1 (reference mRNA sequence NM_006670.4) and the corresponding mouse sequence NP_035757.2 (reference mRNA sequence NM_011627.4). The human/mouse chimeric DNA constructs, as well as human and mouse wild-type 5T4, were cloned into pcDNA3.1 expression vectors. […] In the other approach, cells transfected with a human/mouse 5T4 chimera (Woods et al., 2002) was used, in which mouse sequence in amino acid 173-420 replaced the human sequence (FIG. 5). As controls human 5T4 and mouse 5T4-transfected cells were used.
(§3) For flow cytometric analysis, cells were stained with different 5T4 antibodies diluted in FACS buffer (PBS, 0.5% BSA). […] Samples were analysed by FACSverse (BD Biosciences, Heidelberg, Germany) and % positive cells were determined. To compensate for variations in % 5T4 positive cells in the various transfected populations, binding levels were normalized within each chimera by dividing % positive cells for each clone with % positive cells for the clones resulting in the highest % positive cells (% pos cellsclonX/% positive cellsₘₐₓ). A normalized value≤0.75 was defined as mAb binding being dependent on the replaced region, whereas a normalized value≤0.25 was defined as complete dependence.

[3] = target: T3, human/mouse 5T4 chimera E6; assay: as above
T3 construct: on stably transfected CHO cells
Description: as §2, §3

[4] = target: T4, human/mouse 5T4 chimera E3; assay: as above
T4 construct: on stably transfected CHO cells
Description: as §2, §3

[5] = target: T5, human/mouse 5T4 chimera E1; assay: as above
T5 construct: on stably transfected CHO cells
Description: as §2, §3

[6] = target: T6, human/mouse 5T4 chimera E5; assay: as above
T6 construct: on stably transfected CHO cells
Description: as §2, §3

[7] = target: T7, human/mouse 5T4 chimera E2; assay: as above
T7 construct: on stably transfected CHO cells
Description: as §2, §3

[8] = target: T8, human/mouse 5T4 chimera E4; assay: as above
T8 construct: on stably transfected CHO cells
Description: as §2, §3

cynomolgus 5T4 [9] = target: T1, cynomolgus 5T4; assay: flow cytometry, CHO cells transfected with cynomolgus 5T4
Description: as §1

mouse 5T4 = target: T9, mouse 5T4 (mouse, UniProt Q9Z0L0 32-426); assay: flow cytometry, mouse 5T4-transfected cells
T9 construct: whole, on cells; also called murine 5T4
T9 sequence (looked up): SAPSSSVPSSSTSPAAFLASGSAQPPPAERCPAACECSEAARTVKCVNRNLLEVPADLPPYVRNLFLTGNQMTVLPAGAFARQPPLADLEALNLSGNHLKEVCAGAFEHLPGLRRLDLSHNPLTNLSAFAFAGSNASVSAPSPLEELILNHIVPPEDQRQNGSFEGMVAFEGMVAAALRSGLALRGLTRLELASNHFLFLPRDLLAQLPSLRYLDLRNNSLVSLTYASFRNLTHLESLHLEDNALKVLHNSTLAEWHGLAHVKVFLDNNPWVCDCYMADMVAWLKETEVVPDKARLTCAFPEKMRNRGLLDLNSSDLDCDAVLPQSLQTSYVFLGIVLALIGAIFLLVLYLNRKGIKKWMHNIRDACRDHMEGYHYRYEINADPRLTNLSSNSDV

[10] = target: T10, 5T4 (immobilised for SPR) (UniProt Q13641 32-355, limits assumed, biotinylated on the MASS-1 platform); assay: SPR Biacore 3000, 5T4 amine-coupled, mAb injected, 1:1 Langmuir
T10 construct: also called biotinylated 5T4
T10 sequence (looked up): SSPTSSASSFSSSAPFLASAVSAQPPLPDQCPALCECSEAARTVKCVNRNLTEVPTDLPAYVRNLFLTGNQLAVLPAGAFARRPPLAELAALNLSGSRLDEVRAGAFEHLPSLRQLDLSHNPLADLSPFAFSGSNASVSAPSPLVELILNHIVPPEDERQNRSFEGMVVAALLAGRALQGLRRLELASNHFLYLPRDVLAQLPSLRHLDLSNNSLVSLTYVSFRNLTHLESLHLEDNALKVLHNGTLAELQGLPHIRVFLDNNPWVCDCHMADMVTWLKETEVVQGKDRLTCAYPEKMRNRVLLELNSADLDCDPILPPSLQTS
Description: Binding kinetics of the 5T4-specific mAbs have been studied using two different SPR-based platforms, the Biacore 3000 (GE Healthcare) and the MASS-1 platform (Sierra Sensors). Briefly, 5T4 was captured at the sensor chip surface either via direct amine coupling (Biacore platform) or using a streptavidin coated chip and biotinylated 5T4 (MASS-1 platform). The different 5T4-specific mAbs were then injected over the chip in increasing concentrations and the association and dissociation rates studied in real time. A 1:1 Langmuir model was used for curve fitting.

[11] = target: T11, human 5T4 on transfected cells (human, UniProt Q13641 32-420); assay: flow cytometry, 5T4-transfected A9 cells
T11 construct: whole, on cells; for B16 and A9 cells only a 5T4 construct is named; also called 5T4-transfected B16 cells; B16-5T4
T11 sequence (looked up): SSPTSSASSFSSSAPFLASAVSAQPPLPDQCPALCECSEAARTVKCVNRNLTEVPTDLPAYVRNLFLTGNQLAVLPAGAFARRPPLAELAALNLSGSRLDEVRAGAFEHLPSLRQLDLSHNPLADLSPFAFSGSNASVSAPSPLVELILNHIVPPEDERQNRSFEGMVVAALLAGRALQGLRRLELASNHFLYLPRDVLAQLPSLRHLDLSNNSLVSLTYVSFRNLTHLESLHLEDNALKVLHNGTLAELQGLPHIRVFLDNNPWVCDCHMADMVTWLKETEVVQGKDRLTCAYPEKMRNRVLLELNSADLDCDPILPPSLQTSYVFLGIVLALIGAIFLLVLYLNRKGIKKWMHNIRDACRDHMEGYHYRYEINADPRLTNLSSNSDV
Description: (§4) Analysis of 5T4 mAb binding with flow cytometry was performed using 5T4-transfected cell lines and as negative control, mock transfected cells. Three different transfected cell lines used were used for this study; B16, A9 and CHO, transfected either with a 5T4 construct or with an empty vector control construct. Cells were stained with 5T4 antibodies diluted in FACS buffer (PBS, 0.5% BSA and 0.02% NaN₃). […] Samples were analysed either on a FACSCalibur or a FACSverse (BD Biosciences, Heidelberg, Germany) and mean fluorescence intensity (MFI) determined.

5T4-Fc = target: T12, 5T4-Fc (human, UniProt Q13641 32-355, limits assumed); assay: ELISA, plates coated with 5T4-Fc
T12 construct: obtained from Peter L. Stern, University of Manchester; also called h5T4-Fc; recombinant 5T4
T12 sequence (looked up): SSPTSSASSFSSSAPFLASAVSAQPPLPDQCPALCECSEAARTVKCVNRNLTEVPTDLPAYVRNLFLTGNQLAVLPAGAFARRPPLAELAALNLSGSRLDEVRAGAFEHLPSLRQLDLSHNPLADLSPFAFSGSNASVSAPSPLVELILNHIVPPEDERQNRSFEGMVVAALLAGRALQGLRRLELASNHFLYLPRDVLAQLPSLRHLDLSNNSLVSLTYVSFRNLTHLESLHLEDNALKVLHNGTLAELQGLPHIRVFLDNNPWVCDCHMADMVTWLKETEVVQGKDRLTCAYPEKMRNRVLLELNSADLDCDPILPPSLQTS
Description: ELISA was performed using a standard protocol. Plates (#655074, Greiner Bio-One GmbH, Germany) were pre-coated with 0.5 μg/ml 5T4-Fc (obtained from Peter L. Stern, University of Manchester) overnight. 5T4 antibodies were diluted from 6 to 1.5×10⁻³ μg/ml in 1:4 dilutions and added in duplicates of 50 μl to each well. Binding was detected with rabbit anti-h kappa L-chain-HRP (P0129, Dako Denmark) and the ELISA was developed with SuperSignal ELISA PICO Chemiluminescent substrate (Thermo Scientific Pierce, Rockford, Ill. USA) for 2-10 minutes and read in an automated microplate based multi-detection reader (FLUOstar OPTIMA, Netherlands).

[12] = target: T11, human 5T4 on transfected cells; assay: flow cytometry, 5T4-transfected B16 cells
Description: as §4

Ratio EC50cyno-5T4/h5T4 (cynomolgus 5T4 [1]): 140 ratio
normalized % positive cells [2]: 0.88
normalized % positive cells [3]: 0.03
normalized % positive cells [4]: 0.93
normalized % positive cells [5]: 0.89
normalized % positive cells [6]: 0.84
normalized % positive cells [7]: 0.9
normalized % positive cells [8]: 1
EC50 (cynomolgus 5T4 [9]): 30.7 nM
binding result (mouse 5T4): no binding
kon [10]: 450000 M⁻¹ s⁻¹
Normalized EC50 (to 1628) [11]: 0.4 ratio to 1628
EC50 (5T4-Fc): 0.56 nM
EC50 [12]: 1.4 nM
Normalized EC50 (to 1628) [12]: 1.1 ratio to 1628
B1: 1212/1213 (antibody, IgG1, V domains shown)
VH: EVQLLESGGGLVQPGGSLRLSCAASGFTFSSYAMSWVRQAPGKGLEWVSYISSYGGYTSYADSVKGRFTISRDNSKNTLYLQMNSLRAEDTAVYYCARYHSGVLDYWGQGTLVTVSS
VL: DIQMTQSPSSLSASVGDRVTITCRASQSISSYLNWYQQKPGKAPKLLIYAASSLQSGVPSRFSGSGSGTDFTLTISSLQPEDFATYYCQQYYYHYLLTFGQGTKLEIK
notes: 5T4 antibody
